In data set [1] the test system is MS2 coat protein (bacteriophage MS2?). The conditions noted are these: EMSA: 50 mM Tris-HCl pH 7.4, 150 mM KCl, 2 mM MgCl2, 2 mM DTT, 0.1 mg/ml yeast tRNA, 0.1 mg/ml BSA, room temperature, 30 min, trace 32P-RNA. In general terms: A gel shift assay detects complexes by their altered migration in electrophoresis.
Data set [2] concerns the target T1, MBP-FUS (human, UniProt P35637 1-526). The experiment in a line: EMSA. The conditions noted are these: EMSA: 50 mM Tris-HCl pH 7.4, 150 mM KCl, 2 mM MgCl2, 2 mM DTT, 0.1 mg/ml yeast tRNA, 0.1 mg/ml BSA, room temperature, 30 min, trace 32P-RNA.
Data set [3] concerns MS2 coat protein (bacteriophage MS2?). The conditions noted are these: EMSA: 50 mM Tris-HCl pH 7.4, 150 mM KCl, 2 mM MgCl2, 2 mM DTT, 0.1 mg/ml yeast tRNA, 0.1 mg/ml BSA, room temperature, 30 min, trace 32P-RNA. This is another data set of the same source.
Data set [4] has as its target T1, MBP-FUS. Nature of the data set: EMSA; EMSA: 50 mM Tris-HCl pH 7.4, 150 mM KCl, 2 mM MgCl2, 2 mM DTT, 0.1 mg/ml yeast tRNA, 0.1 mg/ml BSA, room temperature, 30 min, trace 32P-RNA. The settings on record: protein: recombinant, tags: N-terminal His6-MBP (not cleaved).
Data set [5] addresses MBP-LC-RRM (human, UniProt P35637 1-384). Described as above. The settings on record: protein: recombinant, tags: N-terminal MBP, label: 32P.
The target of data set [6] is MBP-RGG-Znf-RGG (human, UniProt P35637 385-526). The description is as above. The settings on record: protein: recombinant, tags: N-terminal MBP, label: 32P.
MBP-RGG-Znf-RGG, sequence (P35637 385-526): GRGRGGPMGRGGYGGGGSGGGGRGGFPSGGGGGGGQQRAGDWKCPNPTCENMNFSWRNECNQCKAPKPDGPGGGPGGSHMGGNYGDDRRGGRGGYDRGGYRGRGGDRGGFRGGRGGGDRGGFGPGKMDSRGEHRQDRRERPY
The target of data set [7] is T1, MBP-FUS. Nature of the data set: EMSA; weaker than full prD; similar to 3'prD; EMSA: 50 mM Tris-HCl pH 7.4, 150 mM KCl, 2 mM MgCl2, 2 mM DTT, 0.1 mg/ml yeast tRNA, 0.1 mg/ml BSA, room temperature, 30 min, trace 32P-RNA. The settings on record: protein: recombinant; tags: N-terminal His6-MBP (not cleaved); label: 32P.
For data set [8], the target named is T1, MBP-FUS. Nature of the data set: EMSA; weaker than full prD; similar to 5'prD; EMSA: 50 mM Tris-HCl pH 7.4, 150 mM KCl, 2 mM MgCl2, 2 mM DTT, 0.1 mg/ml yeast tRNA, 0.1 mg/ml BSA, room temperature, 30 min, trace 32P-RNA. The conditions noted are these: protein: recombinant; tags: N-terminal His6-MBP (not cleaved); label: 32P.
The target of data set [9] is T1, MBP-FUS. Nature of the data set: competition; cold ssDNA vs labeled prD ssRNA; EMSA: 50 mM Tris-HCl pH 7.4, 150 mM KCl, 2 mM MgCl2, 2 mM DTT, 0.1 mg/ml yeast tRNA, 0.1 mg/ml BSA, room temperature, 30 min, trace 32P-RNA. The conditions noted are these: protein: recombinant; tags: N-terminal His6-MBP (not cleaved); chain copies: 4; label: 32P.
Setting [10] is: chain copies: 4, label: 32P, blunt.

Like-named read-outs stand apart in the source and are kept apart here.

For orientation: Kd means the constant that tells how readily two partners part at equilibrium.

T1 sequence (P35637 whole entry): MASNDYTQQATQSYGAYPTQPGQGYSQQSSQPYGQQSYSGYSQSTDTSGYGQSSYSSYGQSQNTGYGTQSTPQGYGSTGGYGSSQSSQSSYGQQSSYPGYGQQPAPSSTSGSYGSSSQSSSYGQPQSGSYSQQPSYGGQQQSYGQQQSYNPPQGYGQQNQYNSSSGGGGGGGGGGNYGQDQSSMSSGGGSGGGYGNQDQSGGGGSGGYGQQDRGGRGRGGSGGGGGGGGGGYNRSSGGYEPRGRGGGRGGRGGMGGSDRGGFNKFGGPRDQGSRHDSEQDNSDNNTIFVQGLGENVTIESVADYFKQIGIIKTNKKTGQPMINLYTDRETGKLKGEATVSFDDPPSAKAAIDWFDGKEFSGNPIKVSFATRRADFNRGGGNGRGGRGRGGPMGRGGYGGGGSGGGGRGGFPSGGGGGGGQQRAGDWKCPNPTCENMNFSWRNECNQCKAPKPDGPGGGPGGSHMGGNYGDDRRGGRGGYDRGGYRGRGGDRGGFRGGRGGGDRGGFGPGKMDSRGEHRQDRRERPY
MBP-LC-RRM, sequence (P35637 1-384): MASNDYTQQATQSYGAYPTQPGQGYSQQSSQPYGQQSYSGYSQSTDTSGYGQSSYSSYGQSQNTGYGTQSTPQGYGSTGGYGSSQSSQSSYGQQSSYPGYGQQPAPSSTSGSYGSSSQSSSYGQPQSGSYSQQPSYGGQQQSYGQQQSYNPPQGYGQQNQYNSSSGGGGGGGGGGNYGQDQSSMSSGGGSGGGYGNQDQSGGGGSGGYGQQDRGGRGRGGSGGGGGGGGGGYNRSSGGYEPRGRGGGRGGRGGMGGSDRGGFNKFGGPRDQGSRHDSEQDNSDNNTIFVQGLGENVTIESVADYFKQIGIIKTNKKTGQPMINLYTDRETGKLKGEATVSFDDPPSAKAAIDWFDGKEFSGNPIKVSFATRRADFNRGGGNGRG

For MBP 1-100 MS2, the Kd in data set [1] came to 100 nM. In data set [2], TERRA displayed a Kd of 116 nM. Same read-out and setting: with MBP 1-200 the figure was 56 nM. Regarding MS2 motif 21 nt, the equilibrium dissociation constant (Kd) in data set [3] worked out at 10 nM. For AGGGTTAGGGTTAGGGTTAGGG (structured_DNA) [Htelo DNA], the Kd in data set [4] (label: 32P) is 730 ± 38 nM. With CAACUUAGGUGGUUGAUUUGA (ssRNA) [GUGGU], the Kd in data set [4] (label: 32P) was determined as 980 ± 42 nM. On the same count and under the same terms, in the case of AAAAAAAAAAAAAAAAAAAAAAAA (ssRNA) [polyA 24-mer] it was 846 nM.

With UUGUAUUUUGAGCUAGUUUGGUGAC (ssRNA) [GGUG], in data set [4], the Kd is 600 ± 20 nM. Turning to GGGAGACCAAAACUGAAGAAGGUAA (ssRNA) [MBP 1-20], the binding result in data set [4] (label: 32P) was “binds”. Consider GGGAGACCAAAACUG (ssRNA) [MBP 1-10], for which, in data set [4] (label: 32P), the binding result was “no binding”. CCUUAACCCCUCUCUGCCUUCACUCCAACUUCUCUGCUGCUCCUCAAU (ssRNA) [As-prD RNA]: the dissociation constant Kd in data set [5] turned out to be 280 ± 22 nM; in [4] (label: 32P), 79 ± 4 nM; in data set [6] it was 260 ± 32 nM.

B1: prD DNA/RNA hybrid (DNA:RNA)
DNA: ATTGAGGAGCAGCAGAGAAGTTGGAGTGAAGGCAGAGAGGGGTTAAGG
RNA: CCUUAACCCCUCUCUGCCUUCACUCCAACUUCUCUGCUGCUCCUCAAU
Regarding B1, the Kd in data set [5] (blunt) was determined as 1200 ± 250 nM; in data set [4] (setting [10]), 980 ± 100 nM; in data set [6] (blunt), 1100 ± 110 nM.

B2: prD dsRNA (dsRNA)
RNA 1: AUUGAGGAGCAGCAGAGAAGUUGGAGUGAAGGCAGAGAGGGGUUAAGG
RNA 2: CCUUAACCCCUCUCUGCCUUCACUCCAACUUCUCUGCUGCUCCUCAAU
On to B2, for which the dissociation constant Kd in data set [5] (blunt) was 2100 ± 60 nM; in data set [4] (setting [10]), 350 ± 38 nM; in [6] (blunt), 1100 ± 80 nM. On to UUGUAUUUUGAGCUAGUUUCCUCAC (ssRNA) [GGUG neg], for which, in data set [4] (label: 32P), the dissociation constant (Kd) is 840 ± 50 nM. The same measure, in the same setting: with AGGGTTAGTGTTAGTGTTAGGG (ssDNA) [Htelo DNA neg] the figure was 690 ± 48 nM. On to AUUGAGGAGCAGCAGAGAAGUUGG (ssRNA) [5'prD], for which, in [7], the binding result is given as “binds”. For the molecule AGUGAAGGCAGAGAGGGGUUAAGG (ssRNA) [3'prD], in [8], the binding result was “binds”. As to GAUUUAUCUUUAACUACUCAAGAUACUGAACAUGACA (structured_RNA) [Stem-loop], in data set [4] (label: 32P, hairpin), the Kd is 430 ± 28 nM. Consider GAUUUAUCUUUAACUACUCUAUCUUCUGAACAUGACA (ssRNA) [Stem-loop neg], for which the dissociation constant Kd in data set [4] (label: 32P) came out at 460 ± 39 nM.

For AGGUCUCAGUUCAUCGCGCGAGGUUAUAGU (ssRNA) [CGCGC], the Kd in data set [4] (label: 32P) came to 290 ± 13 nM. Take ATTGAGGAGCAGCAGAGAAGTTGGAGTGAAGGCAGAGAGGGGTTAAGG (ssDNA) [prD ssDNA]: the dissociation constant (Kd) in [5] was determined as 220 ± 32 nM; in data set [4] (chain copies: 4, label: 32P) it was 280 ± 26 nM; in data set [6] it was 290 ± 29 nM. In data set [9], the binding signal worked out at 10 fold more than ssRNA.

B3: prD dsDNA (dsDNA)
DNA 1: ATTGAGGAGCAGCAGAGAAGTTGGAGTGAAGGCAGAGAGGGGTTAAGG
DNA 2: CCTTAACCCCTCTCTGCCTTCACTCCAACTTCTCTGCTGCTCCTCAAT
For B3, the Kd came to 1400 ± 170 nM in data set [5] (blunt), 1200 ± 110 nM in [4] (setting [10]) and 1000 ± 81 nM in data set [6] (blunt). As to AUUGAGGAGCAGCAGAGAAGUUGGAGUGAAGGCAGAGAGGGGUUAAGG (ssRNA) [prD RNA], the Kd in data set [5] is 60 ± 3 nM; in data set [4] (label: 32P), 97 ± 2 nM; in data set [6] it was 81 ± 2 nM.

The values are drawn from publication PMC4551922, “Nucleic acid-binding specificity of human FUS protein”.
